# Data from patent publication EP2546652A1.
# How the values were obtained:
# [1] = target: nervous necrosis virus (NNV) particles (nervous necrosis virus (from grouper)); assay: immunomagnetic reduction (IMR), logistic fit of IMR (%) against NNV concentration
# [2] = target: nervous necrosis virus (NNV) particles (nervous necrosis virus (from grouper)); assay: immunomagnetic reduction (IMR), anti-NNV magnetic nanoparticles mixed with NNV solution; value at 5 TCID50/ml NNV
# [3] = target: nervous necrosis virus (NNV) particles (nervous necrosis virus (from grouper)); assay: immunomagnetic reduction (IMR), anti-NNV magnetic nanoparticles mixed with NNV solution; value at 10^7 TCID50/ml NNV
substance,measurement,setting,value
"nervous necrosis virus antibody (anti-nervous necrosis virus), covalently bound to the dextran shell of Fe3O4 magnetic nanoparticles","B (high-end value of the IMR signal, logistic fit)",[1],3.47%
same,φo (fitting parameter of the logistic function of IMR signal against NNV concentration),[1],26700 TCID50/ml
same,IMR signal,[2],0.84%
same,IMR signal,[3],3.04%
